Tests used:
Assay type in all cases: biochemical
[1] = Hydrolysis of synthetic substrate Glut-Ala-Ala-Phe-MNA by NEP and mutants (fluorogenic); details: for Km: Glut-Ala-Ala-Phe-MNA 20 to 500 µM, Michaelis-Menten fit; for Activity relative to wild-type enzyme (Glut-Ala-Ala-Phe-MNA): pH 6.5, 37°C
Protocol: Reactions of 400 µl contained 100 µM Glut-Ala-Ala-Phe-MNA, 1 µg of aminopeptidase and 15 to 100 ng of NEP or mutant NEP depending on their activity in 20 mM MES buffer, pH 6.5. Activity was monitored with a Spectra Max Gemini XS plate reader using an excitation wavelength of 340 nm and an emission wavelength of 425 nm.
(§1) Kinetic constants for NEP and its mutants were obtained using the assay conditions noted above, but with Glut-Ala-Ala-Phe-MNA varied from 20 to 500 µM. Typically 12 data points were obtained. The data were fit to the Michaelis-Menten equation using Prism4 software. The Ki for insulin B chain was obtained by measuring the rate of Glut-Ala-Ala-Phe-MNA hydrolysis in the presence of varying concentrations of insulin B chain from 1 to 40 µM. Data were fit to a Dixon plot (1/rate versus [insulin B chain]) using Prism4 software and the ID50 obtained as the –x intercept, where ID50 corresponds to the concentration of insulin producing 50% inhibition. The actual Ki was obtained from the equation: ID50 = Ki (1+ [Glut-Ala-Ala-Phe-MNA]/KmGlut-Ala-Ala-Phe-MNA), [33].

[2] = target: insulin B chain; assay: Insulin B chain as alternate substrate (competitive) inhibitor of Glut-Ala-Ala-Phe-MNA hydrolysis (Dixon plot); details: insulin B chain 1 to 40 µM as competitive inhibitor of Glut-Ala-Ala-Phe-MNA hydrolysis by the enzyme form, 37°C, 20 mM MES, pH 6.5, ID50 converted to Ki
Protocol: as §1

[3] = system: leu-ENK; assay: Rate of leu-ENK hydrolysis (HPLC)
Protocol: (§2) Cleavage of physiological peptides was measured via reverse phase high performance liquid chromatography (HPLC) following incubation of the purified NEP or its mutants with 15 µM insulin B chain (Sigma Aldrich), 24 µM Aß1–40 (Anaspec), or 64 µM leu-ENK (Sigma) in 100 µL of 20 mM MES, pH 6.5, at 37°C. Reactions were run in triplicate. HPLC was carried out in a Vydac C4 column using a linear gradient from 0.1% trifluoroacetic acid (TFA) in 95% water, 5% acetonitrile to 0.1% TFA in 50% acetonitrile/water at a flow rate of 1 mL/min. Peptides and hydrolysis products were detected at 214 nm and quantified by measuring peak areas. Peptides obtained from HPLC were analyzed on an Applied Biosystems 4800 MALDI TOF/TOF Proteomics Analyzer at the University of Kentucky Proteomics core. This facility is supported in part by grant P20RR020171 from the NIH/NCRR.
(§3) Statistical analysis comparing wild-type NEP and its mutants was performed with Prism 4 software using a two-tailed paired t-test with a 95% confidence interval.

[4] = system: insulin B chain; assay: Rate of insulin B chain hydrolysis (HPLC); details: 15 µM insulin B chain, 37°C, 20 mM MES buffer, pH 6.5; disappearance of substrate by HPLC; at least triplicate
Protocol: as §2, §3

[5] = system: Aß1–40; assay: Rate of Aß1–40 hydrolysis (HPLC); details: 24 µM Aß1–40, 37°C, 20 mM MES buffer, pH 6.5; disappearance of substrate by HPLC; at least triplicate
Protocol: as §2, §3

[6] = system: leu-ENK; assay: Dual substrate assay: leu-ENK hydrolysis in presence of insulin B chain; details: 15 µM insulin B chain and 64 µM leu-ENK together, 37°C, 20 mM MES buffer, pH 6.5
Protocol: (§4) The rate of cleavage of a substrate mixture is determined by both the kcat for that substrate as well by the affinity for the substrate. […] This is expected, given that each peptide acts as a competitive inhibitor of the other. […] That is the ratio for leu-ENK/insulin B chain cleavage is 3 for NEP^S546E compared to 6 for wild-type NEP.
as §2

[7] = system: insulin B chain; assay: Dual substrate assay: insulin B chain hydrolysis in presence of leu-ENK; details: 15 µM insulin B chain and 64 µM leu-ENK together, 37°C, 20 mM MES buffer, pH 6.5
Protocol: as §4, §2

[8] = system: leu-ENK and insulin B chain; assay: Dual substrate assay: substrate preference leu-ENK versus insulin B chain
Protocol: as §4, §2

B1: NEP^F563V: neprilysin active site mutant, Phe563 to valine (protein, UniProt P08473 2-750, looked up, variant F563V)
Neprilysin: GKSESQMDITDINTPKPKKKQRWTPLEISLSVLVLLLTIIAVTMIALYATYDDGICKSSDCIKSAARLIQNMDATTEPCTDFFKYACGGWLKRNVIPETSSRYGNFDILRDELEVVLKDVLQEPKTEDIVAVQKAKALYRSCINESAIDSRGGEPLLKLLPDIYGWPVATENWEQKYGASWTAEKAIAQLNSKYGKKVLINLFVGTDDKNSVNHVIHIDQPRLGLPSRDYYECTGIYKEACTAYVDFMISVARLIRQEERLPIDENQLALEMNKVMELEKEIANATAKPEDRNDPMLLYNKMTLAQIQNNFSLEINGKPFSWLNFTNEIMSTVNISITNEEDVVVYAPEYLTKLKPILTKYSARDLQNLMSWRFIMDLVSSLSRTYKESRNAFRKALYGTTSETATWRRCANYVNGNMENAVGRLYVEAAFAGESKHVVEDLIAQIREVFIQTLDDLTWMDAETKKRAEEKALAIKERIGYPDDIVSNDNKLNNEYLELNYKEDEYFENIIQNLKFSQSKQLKKLREKVDKDEWISGAAVVNAFYSSGRNQIVFPAGILQPPVFSAQQSNSLNYGGIGMVIGHEITHGFDDNGRNFNKDGDLVDWWTQQSASNFKEQSQCMVYQYGNFSWDLAGGQHLNGINTLGENIADNGGLGQAYRAYQNYIKKNGEEKLLPGLDLNHKQLFFLNFAQVWCGTYRPEYAVNSIKTDVHSPGNFRIIGTLQNSAEFSEAFHCRKNSYMNPEKKCRVW
[1]; 100 µM Glut-Ala-Ala-Phe-MNA, 37°C, 20 mM MES buffer, pH 6.5, fluorescence ex 340 nm, em 425 nm
  Specific Activity (Glut-Ala-Ala-Phe-MNA cleavage): 11.2 ± 0.3 pmol/min/ng
[1]; 37°C, 20 mM MES buffer, pH 6.5
  Km: 51 ± 10 µM
[1]
  Activity relative to wild-type enzyme (Glut-Ala-Ala-Phe-MNA): ~25%
[2]
  Ki: 1000 ± 100 nM
[3]; 64 µM leu-ENK
  leu-ENK cleavage rate as fraction of wild-type rate: 1/6
[3]; 64 µM leu-ENK, 37°C, 20 mM MES buffer, pH 6.5, disappearance of substrate by HPLC, at least triplicate
  Rate of hydrolysis of leu-ENK: 0.31 ± 0.02 pmol/min/ng
[3]; 64 µM leu-ENK, pH 6.5, 37°C
  leu-ENK cleavage rate relative to wild-type NEP rate: less than 20%
[3]; relative to NEP, from separate single-substrate rates
  Increase in preference for leu-ENK (over Aß1–40): two fold
[4]
  Rate of hydrolysis of Insulin B Chain: 0.06 ± 0.02 pmol/min/ng
[5]
  Rate of hydrolysis of Aß1–40: 14 ± 1 fmol/min/ng
[6]
  leu-ENK hydrolysis rate, dual substrate assay: 0.23 ± 0.03 pmol/min/ng
[6]; numbers in parenthesis
  leu-ENK hydrolysis, activity relative to the uninhibited value: 0.74
[7]
  Insulin B Chain hydrolysis rate, dual substrate assay: 0.04 ± 0.01 pmol/min/ng
[7]; numbers in parenthesis
  Insulin B Chain hydrolysis, activity relative to the uninhibited value: 0.67
[8]; dual substrate assay, versus wild-type
  Substrate preference leu-ENK/insulin B chain (in words): no change in overall substrate preference
[8]; ratio of rates, 15 µM insulin B chain and 64 µM leu-ENK together
  Ratio leu-ENK insulin B chain: 5.8

B2: NEP^F563K: neprilysin active site mutant, Phe563 to lysine (low expressing) (protein, UniProt P08473 2-750, looked up, variant F563K)
Neprilysin: GKSESQMDITDINTPKPKKKQRWTPLEISLSVLVLLLTIIAVTMIALYATYDDGICKSSDCIKSAARLIQNMDATTEPCTDFFKYACGGWLKRNVIPETSSRYGNFDILRDELEVVLKDVLQEPKTEDIVAVQKAKALYRSCINESAIDSRGGEPLLKLLPDIYGWPVATENWEQKYGASWTAEKAIAQLNSKYGKKVLINLFVGTDDKNSVNHVIHIDQPRLGLPSRDYYECTGIYKEACTAYVDFMISVARLIRQEERLPIDENQLALEMNKVMELEKEIANATAKPEDRNDPMLLYNKMTLAQIQNNFSLEINGKPFSWLNFTNEIMSTVNISITNEEDVVVYAPEYLTKLKPILTKYSARDLQNLMSWRFIMDLVSSLSRTYKESRNAFRKALYGTTSETATWRRCANYVNGNMENAVGRLYVEAAFAGESKHVVEDLIAQIREVFIQTLDDLTWMDAETKKRAEEKALAIKERIGYPDDIVSNDNKLNNEYLELNYKEDEYFENIIQNLKFSQSKQLKKLREKVDKDEWISGAAVVNAFYSSGRNQIVFPAGILQPPKFSAQQSNSLNYGGIGMVIGHEITHGFDDNGRNFNKDGDLVDWWTQQSASNFKEQSQCMVYQYGNFSWDLAGGQHLNGINTLGENIADNGGLGQAYRAYQNYIKKNGEEKLLPGLDLNHKQLFFLNFAQVWCGTYRPEYAVNSIKTDVHSPGNFRIIGTLQNSAEFSEAFHCRKNSYMNPEKKCRVW
[1]
  Activity relative to wild-type enzyme (Glut-Ala-Ala-Phe-MNA): < 1%

B3: NEP^S546T: neprilysin active site mutant, Ser546 to threonine (protein, UniProt P08473 2-750, looked up, variant S546T)
Neprilysin: GKSESQMDITDINTPKPKKKQRWTPLEISLSVLVLLLTIIAVTMIALYATYDDGICKSSDCIKSAARLIQNMDATTEPCTDFFKYACGGWLKRNVIPETSSRYGNFDILRDELEVVLKDVLQEPKTEDIVAVQKAKALYRSCINESAIDSRGGEPLLKLLPDIYGWPVATENWEQKYGASWTAEKAIAQLNSKYGKKVLINLFVGTDDKNSVNHVIHIDQPRLGLPSRDYYECTGIYKEACTAYVDFMISVARLIRQEERLPIDENQLALEMNKVMELEKEIANATAKPEDRNDPMLLYNKMTLAQIQNNFSLEINGKPFSWLNFTNEIMSTVNISITNEEDVVVYAPEYLTKLKPILTKYSARDLQNLMSWRFIMDLVSSLSRTYKESRNAFRKALYGTTSETATWRRCANYVNGNMENAVGRLYVEAAFAGESKHVVEDLIAQIREVFIQTLDDLTWMDAETKKRAEEKALAIKERIGYPDDIVSNDNKLNNEYLELNYKEDEYFENIIQNLKFSQSKQLKKLREKVDKDEWISGAAVVNAFYTSGRNQIVFPAGILQPPFFSAQQSNSLNYGGIGMVIGHEITHGFDDNGRNFNKDGDLVDWWTQQSASNFKEQSQCMVYQYGNFSWDLAGGQHLNGINTLGENIADNGGLGQAYRAYQNYIKKNGEEKLLPGLDLNHKQLFFLNFAQVWCGTYRPEYAVNSIKTDVHSPGNFRIIGTLQNSAEFSEAFHCRKNSYMNPEKKCRVW
[1]; 37°C, 20 mM MES buffer, pH 6.5
  Km: 73 ± 6 µM

B4: NEP^S546A: neprilysin active site mutant, Ser546 to alanine (protein, UniProt P08473 2-750, looked up, variant S546A)
Neprilysin: GKSESQMDITDINTPKPKKKQRWTPLEISLSVLVLLLTIIAVTMIALYATYDDGICKSSDCIKSAARLIQNMDATTEPCTDFFKYACGGWLKRNVIPETSSRYGNFDILRDELEVVLKDVLQEPKTEDIVAVQKAKALYRSCINESAIDSRGGEPLLKLLPDIYGWPVATENWEQKYGASWTAEKAIAQLNSKYGKKVLINLFVGTDDKNSVNHVIHIDQPRLGLPSRDYYECTGIYKEACTAYVDFMISVARLIRQEERLPIDENQLALEMNKVMELEKEIANATAKPEDRNDPMLLYNKMTLAQIQNNFSLEINGKPFSWLNFTNEIMSTVNISITNEEDVVVYAPEYLTKLKPILTKYSARDLQNLMSWRFIMDLVSSLSRTYKESRNAFRKALYGTTSETATWRRCANYVNGNMENAVGRLYVEAAFAGESKHVVEDLIAQIREVFIQTLDDLTWMDAETKKRAEEKALAIKERIGYPDDIVSNDNKLNNEYLELNYKEDEYFENIIQNLKFSQSKQLKKLREKVDKDEWISGAAVVNAFYASGRNQIVFPAGILQPPFFSAQQSNSLNYGGIGMVIGHEITHGFDDNGRNFNKDGDLVDWWTQQSASNFKEQSQCMVYQYGNFSWDLAGGQHLNGINTLGENIADNGGLGQAYRAYQNYIKKNGEEKLLPGLDLNHKQLFFLNFAQVWCGTYRPEYAVNSIKTDVHSPGNFRIIGTLQNSAEFSEAFHCRKNSYMNPEKKCRVW
[1]; 37°C, 20 mM MES buffer, pH 6.5
  Km: 118 ± 7 µM
